Where a SMILES comes first, the peptide text is derived from it. Bridges are numbered along the chain shown (N, C = ends). The star is where a group is joined. Cam = NC(=O)C*
What was measured:
[1] = tested on: rat bone marrow stromal cells; test: Dexamethasone-treated rat bone marrow stromal cell cultures (proliferation, mineralization, TGF-β levels); type: cell-based; conditions: dexamethasone 10^-8 M, FIG. 17
Experimental: The methods used in the studies described in this example and illustrated in FIGS. 16 and 17 are as follows. Femoral bones were removed under aseptic conditions from adult male Wistar rats (120 g), cleaned of adherent soft tissues, and washed extensively in antibiotics. The distal ends were removed and the marrow contents were flushed out with 10 ml of culture medium. The cells were dispersed by repeated passage through a 20 gauge needle and incubated in alpha-MEM supplemented with 15% fetal bovine serum, ascorbic acid (50 μg/ml), antibiotics (penicillin G 100 μg/ml, gentamicin 50 μg/ml, fungizone 0.3 μg/ml) and 10 mM β-glycerophosphate. […] Following 6 days of culture at 37° C. in a humidified atmosphere containing 5% CO2 in air, the cells were re-plated at a density of 1×10^2 cell/mm^2 in 96 multi-well plates (Falcon 3047), and grown for another 12-14 days. At the end of culture, the cells were fixed and stained for calcium with alizarin red-s for quantification of bone nodule area (reported as mineralized area (mm^2)/well). To assess mineralized tissue formation in the cultures morphometric measurements were carried out with the aid of a Bioquant IV system (Bioquant, Nashville, Tenn., U.S.A.) using a Leitz Orthoplan microscope. TGF-β in culture supernatants taken 4 days prior to scoring mineralization were measured with and without heat activation (80° C. for 10 min) using the Mink cells as the indicator cell line as described in FIG. 12.

TGF-β1 [2] = molecular target: T1, TGF-β1 (Homo sapiens, UniProt P01137); test: BIAcore surface plasmon resonance, binding to immobilized TGF-β1; conditions: for kass: ligand TGF-β1
T1 construct: The mature processed cytokines produced from the members of the gene family show almost 100% amino acid identity between species; purchased Collaborative Research (Bedford, Mass.)
Experimental: (§1) In this system, a purified protein serving as the ligand is covalently coupled to a carboxymethylated dextran surface, and binding molecules (i.e. the analyte) are passed in a fluid phase across the surface. Binding of the analyte to ligand causes a change in reflected light which is directly proportional to mass bound, and is measured in arbitrary response units (R.U.). Analyte-ligand binding is observed as both increasing response with time during the injection of analyte, and the difference in the position of the baseline before and after injection.
(§2) Schuster, R. V. Swanson, L. A. Alex, R. B. Bourret, M. I. Simon, Nature 365, 343 (1993). 1000 R.U. equals approximately 1 ng/mm^2. The running buffer was 20 mM Hepes (pH 7.2), 150 mM NaCl and the flow rate for all sensorgrams was 3 μl/min.
(§3) Regeneration of the surface to remove bound analyte was done by injection of 10 μl of 20 mM NaOH. To cyclize TRH1 peptides, the material was reduced with 5 mM DTT then brought to a final concentration of 60 μM in 25 mM ammonium acetate (pH 8.5). After stirring in the dark for 30 min at 20° C. with 30 mM potassium ferricyanide, the peptide was mixed with AG3-X4A resin (BioRad), filtered, lyophilization and desalted on a 50×2.5 cm column of Biogel P2 (Pharmacia) developed in water, and further purified by reverse phase HPLC.
(§4) Injection volumes were 36 μl for FIG. 2, 4 and 5 and 45 μl for FIG. 3. […] Protein concentrations in each experiment were (FIGS. 2 and 3), 2, 5, 10, 20, 30, 40 μM; (FIG. 4), 0.21, 0.31, 0.41, 0.62, 0.82, 1.24 μM; (FIG. 5), 0.22, 0.29, 0.44, 0.59, 0.88 μM. R.U. for the immobilized cytokine in each experiment was 2850 R.U. for FIGS. 2 and 3; 7450 R.U. for FIG. 4, and 5300 R.U., for FIG. 5 respectively.
(§5) Data was analyzed using the BIA-evaluation software (Pharmacia Biosensor). The association rate constant, kass, was calculated by first plotting the change in response with time versus response (i.e. dR/dT vs R). When the slope of the line from this graph is plotted versus analyte concentration (i.e d(dR/dT)/dR vs C), kass is obtained from the slope of the line. The dissociation rate constant, kdiss, is obtained during the decrease in response with time after analyte injection is discontinued. Specifically, kdiss was obtained from the slope of the line in a plot of ln(Rt1 /Rtn) vs time. The affinity constants were calculated from KD =kdiss /kass. Variance for kass is standard error of the linear regression plot, and for kdiss values are the mean ± range of 3 or more independent injections.

TGF-β1 binding to TβRII = molecular target: T2, TGF-β1 binding to TβRII (Homo sapiens, UniProt P01137); test: Competition of TGF-β1 binding to immobilized TβRII (Quantikine ELISA); conditions: 40 pM TGF-β1; fetuin 40 μM, TRH1 peptide from TβRII 20 μM; FIG. 14
T2 construct: The mature processed cytokines produced from the members of the gene family show almost 100% amino acid identity between species; purchased R&D Systems
Experimental: Inhibition of TGF-β1 binding to TβRII was carried out using the Quantikine ELISA kit (R&D Systems). In particular, 96 well plates were pre-coated with the extracellular domain of TβRII. […] This was followed by a 5 minute incubation with the TβRII coated ELISA wells with shaking, washing as recommended, and a 1 hr incubation with the polyclonal anti-TGF-β1 antibody. Plates were developed as per the instructions, and determinations were made in triplicate.

BMP-2 = molecular target: T3, BMP-2 (Homo sapiens, UniProt P12643); test: BIAcore surface plasmon resonance, binding to immobilized BMP-2; conditions: for kass: ligand BMP-2
T3 construct: Genetics Institute, Cambridge, Mass; (gift)
T3 sequence (P12643 283-396): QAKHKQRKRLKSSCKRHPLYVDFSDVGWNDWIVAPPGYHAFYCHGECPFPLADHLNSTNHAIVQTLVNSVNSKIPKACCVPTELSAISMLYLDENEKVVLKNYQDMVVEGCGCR
Experimental: as §1, §2, §3, §4, §5

TGF-β1 [3] = molecular target: T1, TGF-β1; test: 3H-Thymidine incorporation in Mv1Lu cells: neutralization of the antiproliferative activity of TGF-β1; type: cell-based
Experimental: Mv1Lu cells were seeded at 20,000 cells/well in a 96 well plate containing 0.2% FCS in α-MEM and incubated with the indicated concentrations of proteins for 18 hr. The cells were then pulsed with 8 μCi/ml methyl-^3 H-thymidine (NEN, Boston, Mass.) for 6 hr. Cells were trypsinized, harvested onto filtermats and counted in a β-Counter. Percent neutralization is defined as incorporation in the presence of 12 pM TGF-β1 alone set at 0%, and incorporation without additions as 100%. The difference in ^3 H-thymidine incorporation between 0% and 100% was 7.5 fold. Each point in FIG. 1 and FIG. 12 represents the mean of duplicate determinations, and the results are representative of three experiments. […] Before use, bovine thyroglobulin was spun twice in a centricon (M.W. cutoff of 10,000 Da) micro-concentrator (Amicon, Beverly, Mass.) to remove any excess Iodine and T3/T4 thyroid hormones.

TGF-β2 = molecular target: T4, TGF-β2 (Homo sapiens, UniProt P61812); test: BIAcore surface plasmon resonance, binding to immobilized TGF-β2; conditions: Table 1; ligand TGF-β2
T4 construct: The mature processed cytokines produced from the members of the gene family show almost 100% amino acid identity between species
T4 sequence (P61812 303-414 limits assumed): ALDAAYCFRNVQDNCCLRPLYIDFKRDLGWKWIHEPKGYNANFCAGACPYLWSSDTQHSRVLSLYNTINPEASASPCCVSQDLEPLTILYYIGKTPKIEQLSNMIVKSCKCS
Experimental: as §1, §2, §3
as §5, with “Variance for kass is standard error of the linear regression plot, and for kdiss values are the mean ± range of 3 or more independent injections.” left out

BMP-4 = molecular target: T5, BMP-4 (Homo sapiens, UniProt P12644); test: BIAcore surface plasmon resonance, binding to immobilized BMP-4; conditions: Table 1; ligand BMP-4
T5 sequence (P12644 293-408): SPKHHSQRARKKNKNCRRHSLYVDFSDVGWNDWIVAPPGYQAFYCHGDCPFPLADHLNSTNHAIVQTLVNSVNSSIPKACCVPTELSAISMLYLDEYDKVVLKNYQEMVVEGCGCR
Experimental: as §1, §2
Regeneration of the surface to remove bound analyte was done by injection of 10 μl of 20 mM NaOH. To cyclize TRH1 peptides, the material was reduced with 5 mM DTT then brought to a final concentration of 60 μM in 25 mM ammonium acetate (pH 8.5). […]
Data was analyzed using the BIA-evaluation software (Pharmacia Biosensor). The association rate constant, kass, was calculated by first plotting the change in response with time versus response (i.e. dR/dT vs R). […] The affinity constants were calculated from KD =kdiss /kass. […]

[4] = Table 2 (calculations repeated)

T1 sequence (P01137 279-390 limits assumed): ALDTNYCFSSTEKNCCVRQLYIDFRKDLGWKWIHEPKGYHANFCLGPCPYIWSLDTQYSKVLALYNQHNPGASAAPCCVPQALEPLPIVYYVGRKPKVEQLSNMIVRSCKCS
T2 sequence (P01137 279-390 limits assumed): as above

Q: For `C[C@@H]1C[C@H]2[C@@H]3CCC4=CC(=O)C=C[C@]4(C)[C@@]3(F)[C@@H](O)C[C@]2(C)[C@@]1(O)C(=O)CO` [Dexamethasone, dexamethasone, reference compound], which “increase of the fraction of active TGF-β in the cultures” value [1] is on record?
A: 3 fold

Q: How did the kass (TGF-β1 [2]; Table 1) turn out when `CC[C@H](C)[C@@H]1NC(=O)[C@H](CC(N)=O)NC(=O)[C@H](CCC(=O)O)NC(=O)[C@H](CC(=O)O)NC(=O)[C@H](CC(N)=O)NC(=O)[C@H](CCCCN)NC(=O)[C@H](CCCNC(=N)N)NC(=O)[C@H](Cc2c[nH]c3ccccc23)NC(=O)[C@H](C(C)C)NC(=O)[C@H](C)NC(=O)[C@H](C(C)C)NC(=O)[C@@H](N)CSSC[C@@H](C(=O)O)NC(=O)[C@H](C(C)C)NC(=O)[C@H]([C@@H](C)O)NC(=O)[C@H](CCC(=O)O)NC(=O)[C@H](CC(C)C)NC(=O)[C@H]([C@@H](C)O)NC1=O` [TRH1b (TβRII)] was run?
A: 3700 ± 2900 M⁻¹ s⁻¹

Q: What about the kass (TGF-β1 [2]; [4]) of the same compound?
A: 2200 ± 1300 M⁻¹ s⁻¹

Q: What about the “inhibition of TGF-β1 binding to immobilized recombinant TβRII” value (TGF-β1 binding to TβRII) of the same compound?
A: competitive inhibitors

Q: For `CC[C@H](C)[C@H](NC(=O)[C@H](CC(=O)O)NC(=O)[C@@H](N)CSCC(N)=O)C(=O)N[C@@H](Cc1c[nH]cn1)C(=O)N[C@H](C(=O)N[C@@H](CC(C)C)C(=O)N[C@@H](CCCCN)C(=O)N[C@@H](CCC(N)=O)C(=O)N[C@@H](CC(=O)O)C(=O)NCC(=O)N[C@@H](CCC(N)=O)C(=O)N[C@@H](Cc1ccccc1)C(=O)N[C@@H](CO)C(=O)N[C@H](C(=O)N[C@@H](CC(C)C)C(=O)N[C@@H](Cc1ccccc1)C(=O)N[C@H](C(=O)N[C@@H](CCCCN)C(=O)N[C@@H](CSCC(N)=O)C(=O)O)[C@@H](C)O)C(C)C)C(C)C` [TRH1b (fetuin) (reduced & alkylated)] (H-C(Cam)DIHVLKQDGQFSVLFTKC(Cam)-OH; N-terminus and C-terminus assumed), which “binding to immobilized BMP-2 (in words)” value (BMP-2) is on record?
A: no significant binding

Q: What does the source list for `CC[C@H](C)[C@@H]1NC(=O)[C@H](CC(=O)O)NC(=O)[C@@H](N)CSSC[C@@H](C(=O)O)NC(=O)[C@H](CCCCN)NC(=O)[C@H]([C@@H](C)O)NC(=O)[C@H](Cc2ccccc2)NC(=O)[C@H](CC(C)C)NC(=O)[C@H](C(C)C)NC(=O)[C@H](CO)NC(=O)[C@H](Cc2ccccc2)NC(=O)[C@H](CCC(N)=O)NC(=O)CNC(=O)[C@H](CC(=O)O)NC(=O)[C@H](CCC(N)=O)NC(=O)[C@H](CCCCN)NC(=O)[C@H](CC(C)C)NC(=O)[C@H](C(C)C)NC(=O)[C@H](Cc2c[nH]cn2)NC1=O` [TRH1b (fetuin)] (H-CDIHVLKQDGQFSVLFTKC-OH; disulfide 1-19; N-terminus and C-terminus assumed)?
A: kass (BMP-2; [4]): 1300 ± 500 M⁻¹ s⁻¹; Competition of fetuin-BMP-2 binding (BMP-2; co-injected with fetuin, data not shown, listed as fetuin TRH1b peptide): competed for fetuin-BMP-2 binding in a dose dependent manner

Q: “Thyroglobulin: Bovine thyroglobulin (Sigma), contains the TRH1 domain” was tested. Which “Maximal effect, percent neutralization” value (TGF-β1 [3]; 12 pM TGF-β1, FIG. 1) did it give?
A: approximately 150%

Q: And the “IC50 for inhibition of TGF-β1 activity, fold lower than for fetuin” value (TGF-β1 [3]; FIG. 1)?
A: 20 fold

Q: What about the kass (TGF-β2) of the same compound?
A: 1300 ± 600 M⁻¹ s⁻¹

Q: What about the kass (BMP-2; Table 1) of the same compound?
A: 32000 ± 2000 M⁻¹ s⁻¹

Q: What about the kass (BMP-4) of the same compound?
A: 54000 ± 7000 M⁻¹ s⁻¹

Q: “human transferrin: non-binding control protein [reference compound]” was tested. Which “binding to immobilized TGF-β1 (in words)” value (TGF-β1 [2]) did it give?
A: non-binding

Q: How did the “binding to immobilized TGF-β1 (in words)” value (TGF-β1 [2]) turn out when “reduced and alkylated fetuin: fetuin, reduced and alkylated” was run?
A: diminished binding

Q: And the “binding to immobilized BMP-2 (in words)” value (BMP-2)?
A: diminished binding
